Assay results reported in paper PMC7818228, “Laser‐facilitated epicutaneous immunotherapy with hypoallergenic beta‐glucan neoglycoconjugates suppresses lung inflammation and avoids local side effects in a mouse model of allergic asthma” (Allergy, 2020).

B1: ovalbumin (EndoFit Ovalbumin, endotoxin-free) (natural protein, UniProt P01012 1-386, looked up)
chain: MGSIGAASMEFCFDVFKELKVHHANENIFYCPIAIMSALAMVYLGAKDSTRTQINKVVRFDKLPGFGDSIEAQCGTSVNVHSSLRDILNQITKPNDVYSFSLASRLYAEERYPILPEYLQCVKELYRGGLEPINFQTAADQARELINSWVESQTNGIIRNVLQPSSVDSQTAMVLVNAIVFKGLWEKAFKDEDTQAMPFRVTEQESKPVQMMYQIGLFRVASMASEKMKILELPFASGTMSMLVLLPDEVSGLEQLESIINFEKLTEWTSSNVMEERKIKVYLPRMKMEEKYNLTSVLMAMGITDVFSSSANLSGISSAESLKISQAVHAAHAEINEAGREVVGSAEAGVDAASVSEEFRADHPFLFCIKHIATNAVLFFGRCVSP
notes: ovalbumin (OVA), endotoxin-free commercial preparation; crystal structure 1OVA named for it; Commercial ovalbumin; also called unconjugated OVA; soluble OVA; source: bought: InvivoGen (EndoFit Ovalbumin)

Columns and labels:
Test in all cases: MST; in solution; Monolith NT.115 RED; Hill fit model for multiple binding; apparent dissociation constants (Kdapp); three independent binding experiments
[1] = target: soluble murine Fc-Dectin-1a receptor (mouse) (UniProt Q6QLQ4)
soluble receptor TLR5 [2] = target: soluble receptor TLR5 (UniProt Q9JLF7)
soluble receptor TLR5 [3] = target: soluble receptor TLR5 (UniProt Q9JLF7 27-641, Supplement states soluble human TLR5 fused to an IgG1 Fc domain (Fc carrier left out; 2 copies assumed from Fc dimerisation); limits are the UniProt extracellular domain by convention; lysine/amine la); conditions: both partners purified
soluble receptor TLR5 (UniProt Q9JLF7 27-641, Supplement states soluble human TLR5 fused to an IgG1 Fc domain (Fc carrier left out; 2 copies assumed from Fc dimerisation); limits are the UniProt extracellular domain by convention; lysine/amine la), sequence (Q9JLF7 27-641): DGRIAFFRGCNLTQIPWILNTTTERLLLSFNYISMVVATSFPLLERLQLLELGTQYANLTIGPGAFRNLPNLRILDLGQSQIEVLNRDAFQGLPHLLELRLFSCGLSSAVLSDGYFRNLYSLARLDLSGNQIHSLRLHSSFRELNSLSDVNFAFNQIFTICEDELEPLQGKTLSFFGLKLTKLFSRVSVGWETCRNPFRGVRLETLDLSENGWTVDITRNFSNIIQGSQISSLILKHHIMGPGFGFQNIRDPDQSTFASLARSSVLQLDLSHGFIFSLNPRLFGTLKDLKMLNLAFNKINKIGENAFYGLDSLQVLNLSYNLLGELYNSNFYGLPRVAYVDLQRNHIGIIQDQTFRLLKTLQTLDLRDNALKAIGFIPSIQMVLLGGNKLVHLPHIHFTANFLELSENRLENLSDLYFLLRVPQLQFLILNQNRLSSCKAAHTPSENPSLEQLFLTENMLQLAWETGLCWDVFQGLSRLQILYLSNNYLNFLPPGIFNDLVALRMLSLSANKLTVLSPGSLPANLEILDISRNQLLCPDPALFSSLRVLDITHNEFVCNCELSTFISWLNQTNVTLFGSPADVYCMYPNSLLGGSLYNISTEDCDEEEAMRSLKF

soluble murine Fc-Dectin-1a receptor (mouse), sequence (Q6QLQ4 71-244): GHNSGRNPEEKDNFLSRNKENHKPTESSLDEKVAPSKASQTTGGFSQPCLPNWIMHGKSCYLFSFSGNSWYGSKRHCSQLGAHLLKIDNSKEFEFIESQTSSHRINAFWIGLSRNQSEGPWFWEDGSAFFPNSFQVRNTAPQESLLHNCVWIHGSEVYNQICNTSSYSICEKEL
soluble receptor TLR5 (UniProt Q9JLF7), sequence (Q9JLF7 27-641): as the sequence (Q9JLF7 27-641) above

Molecule | Kd [1] [nM] | Kdapp counted on the laminarin concentration (carbohydrate to protein ratio 0.6) [1] [µM] | Kdapp counted on the laminarin concentration (carbohydrate to protein ratio 2.5, anthrone method) [1] [µM] | Kdapp (concentration basis not stated; compared with the 0.99 µM for Dectin-1) (soluble receptor TLR5 [2]) [µM] | Kd (soluble receptor TLR5 [3]) [nM]
laminarin-ovalbumin neoglycoconjugate (LamOVA) (from UniProt P01012 1-386) | 170 | 0.99 | 4.22 | 6 | 
B1 | 5330 |  |  |  | 800 ± 300
